Reference: article PMC3839617

Target: neuropilin 1 (human) (UniProt O14786)
Experiment: radioligand binding

UniProt O14786, sequence (O14786 22-923): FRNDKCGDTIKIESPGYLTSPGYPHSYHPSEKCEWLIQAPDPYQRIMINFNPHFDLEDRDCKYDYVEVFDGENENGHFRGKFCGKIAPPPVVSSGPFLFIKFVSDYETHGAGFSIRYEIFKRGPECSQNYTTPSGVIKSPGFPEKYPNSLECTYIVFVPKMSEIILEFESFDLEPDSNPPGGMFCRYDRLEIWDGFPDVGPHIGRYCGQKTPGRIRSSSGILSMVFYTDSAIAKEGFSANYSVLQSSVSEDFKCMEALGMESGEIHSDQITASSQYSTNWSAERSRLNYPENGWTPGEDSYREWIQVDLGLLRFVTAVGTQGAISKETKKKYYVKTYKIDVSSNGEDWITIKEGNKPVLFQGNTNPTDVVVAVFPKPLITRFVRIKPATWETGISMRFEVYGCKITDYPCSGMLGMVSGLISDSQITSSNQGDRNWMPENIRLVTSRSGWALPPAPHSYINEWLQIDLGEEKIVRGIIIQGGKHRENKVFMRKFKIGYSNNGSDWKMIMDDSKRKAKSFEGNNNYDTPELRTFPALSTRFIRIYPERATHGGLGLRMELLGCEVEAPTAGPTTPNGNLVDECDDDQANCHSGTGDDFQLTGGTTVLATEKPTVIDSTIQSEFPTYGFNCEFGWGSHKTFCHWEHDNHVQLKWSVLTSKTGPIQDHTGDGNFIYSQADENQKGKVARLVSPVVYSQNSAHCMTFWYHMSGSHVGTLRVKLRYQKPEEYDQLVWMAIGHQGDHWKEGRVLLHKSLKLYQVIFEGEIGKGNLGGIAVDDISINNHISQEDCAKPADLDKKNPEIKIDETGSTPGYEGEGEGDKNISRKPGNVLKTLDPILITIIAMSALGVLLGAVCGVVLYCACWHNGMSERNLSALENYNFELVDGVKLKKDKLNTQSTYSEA

I125VEGF bound: 413 fmol/µg
I125VEGF bound in the presence of SN: 504 fmol/µg
Substance: VEGF labelled by radioactive iodine (from UniProt P15692 1-395) (ligand)
